Measurements reported in paper doi:10.1101/257543 (bioRxiv, 2018).

T1: SERK3^F60A LRR ectodomain (A. thaliana, UniProt Q94F62 26-220, F60A)
T1 sequence (looked up): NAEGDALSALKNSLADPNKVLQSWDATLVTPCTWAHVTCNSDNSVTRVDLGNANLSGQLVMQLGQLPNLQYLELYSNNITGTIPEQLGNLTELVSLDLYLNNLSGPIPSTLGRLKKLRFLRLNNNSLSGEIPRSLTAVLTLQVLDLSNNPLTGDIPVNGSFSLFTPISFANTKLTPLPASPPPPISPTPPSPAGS

T2: SERK3^D122N LRR ectodomain (elg) (A. thaliana, UniProt Q94F62 26-220, D122N)
T2 sequence (looked up): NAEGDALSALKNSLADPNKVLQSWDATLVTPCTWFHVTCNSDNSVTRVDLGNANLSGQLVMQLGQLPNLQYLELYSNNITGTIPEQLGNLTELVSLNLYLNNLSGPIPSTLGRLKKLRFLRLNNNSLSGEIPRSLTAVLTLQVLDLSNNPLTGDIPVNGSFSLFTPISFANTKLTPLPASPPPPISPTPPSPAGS

T3: SERK3 LRR ectodomain (SERK3^1-220), wild type (A. thaliana, UniProt Q94F62 26-220)
T3 sequence (looked up): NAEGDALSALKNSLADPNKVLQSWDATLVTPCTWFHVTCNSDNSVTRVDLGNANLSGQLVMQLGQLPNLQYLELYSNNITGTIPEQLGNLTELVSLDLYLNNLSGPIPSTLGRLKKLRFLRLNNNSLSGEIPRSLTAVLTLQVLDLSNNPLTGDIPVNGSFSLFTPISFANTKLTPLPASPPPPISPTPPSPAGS


Assays:
Assay in all cases: ITC
[1] = biological target: different SERK ectodomains
[2] = biological target: T1, SERK3^F60A LRR ectodomain
[3] = biological target: T2, SERK3^D122N LRR ectodomain (elg)
[4] = biological target: T3, SERK3 LRR ectodomain (SERK3^1-220), …

| Kd [1] [µM] | binding result [2] | fold reduction of binding against wild-type SERK3 [3] [fold] | binding result [4] | Kd [4] [µM] | stoichiometry N [4] | Binder |
| --- | --- | --- | --- | --- | --- | --- |
| 1 to 3 | binds | ~8 | binds |  |  | BIR2 LRR ectodomain (BIR2^1-222), wild type (domain or fragment, A. thaliana, UniProt Q9LSI9 29-222, looked up, N-glycan at Asn58 (in the crystal structure)) ADEDDIRCLRGLKASLTDPQNALKSWNFDNTTLGFLCNFVGVSCWNNQENRVINLELRDMGLSGKIPDSLQYCASLQKLDLSSNRLSGNIPTELCNWLPFLVSLDLSNNELNGEIPPDLAKCSFVNSLVLSDNRLSGQIPVQFSALGRLGRFSVANNDLSGRIPVFFSSPSYSSDDFSGNKGLCGRPLSSSCGG |
|  |  |  | binds |  |  | BIR2^W73A LRR ectodomain (domain or fragment, A. thaliana, UniProt Q9LSI9 29-222, looked up) ADEDDIRCLRGLKASLTDPQNALKSWNFDNTTLGFLCNFVGVSCANNQENRVINLELRDMGLSGKIPDSLQYCASLQKLDLSSNRLSGNIPTELCNWLPFLVSLDLSNNELNGEIPPDLAKCSFVNSLVLSDNRLSGQIPVQFSALGRLGRFSVANNDLSGRIPVFFSSPSYSSDDFSGNKGLCGRPLSSSCGG |
|  |  |  | binds |  |  | BIR2^V157D LRR ectodomain (domain or fragment, A. thaliana, UniProt Q9LSI9 29-222, looked up) ADEDDIRCLRGLKASLTDPQNALKSWNFDNTTLGFLCNFVGVSCWNNQENRVINLELRDMGLSGKIPDSLQYCASLQKLDLSSNRLSGNIPTELCNWLPFLVSLDLSNNELNGEIPPDLAKCSFVNSLDLSDNRLSGQIPVQFSALGRLGRFSVANNDLSGRIPVFFSSPSYSSDDFSGNKGLCGRPLSSSCGG |
|  |  |  | binds |  |  | BIR2^E84R LRR ectodomain (domain or fragment, A. thaliana, UniProt Q9LSI9 29-222, looked up) ADEDDIRCLRGLKASLTDPQNALKSWNFDNTTLGFLCNFVGVSCWNNQENRVINLRLRDMGLSGKIPDSLQYCASLQKLDLSSNRLSGNIPTELCNWLPFLVSLDLSNNELNGEIPPDLAKCSFVNSLVLSDNRLSGQIPVQFSALGRLGRFSVANNDLSGRIPVFFSSPSYSSDDFSGNKGLCGRPLSSSCGG |
| 1 to 3 |  | ~4 |  | ~1 | 1 | BIR3 LRR ectodomain (BIR3^1-213) (domain or fragment, A. thaliana, UniProt O04567 25-213, looked up, N-glycosylated (fully glycosylated in the crystal; sites not given)) EDDVLCLQGLKNSLIDPSSRLSSWSFPNSSASSICKLTGVSCWNEKENRIISLQLQSMQLAGEIPESLKLCRSLQSLDLSGNDLSGSIPSQICSWLPYLVTLDLSGNKLGGSIPTQIVECKFLNALILSDNKLSGSIPSQLSRLDRLRRLSLAGNDLSGTIPSELARFGGDDFSGNNGLCGKPLSRCGA |
